# Data published in US20100056457.
# Assays:
# [1] = test system: pE2S six-finger protein (synthetic (Zif268/Sp1C framework)); experiment: EMSA
# [2] = test system: gg1 six-finger protein (synthetic); conditions: CITED ref 40 (Graslund 2005); cited from earlier work
# [3] = test system: pE2S six-finger protein (synthetic (Zif268/Sp1C framework)); experiment: footprint; conditions: DNase I footprint, 10 uM Zn, 4 C, mean of three; protected exactly the 18 bp site
substance,measurement,setting,value
CGGGGGGCTCCCCTGGTT (double strand) [E2S target site],Kd,[1],3.25 nM
GTCAAGGCAAGGCTGGCC (double strand) [gg1 target site],Kd,[2],0.7 nM
"ERBB-2 promoter fragment, 267 bp (-209 to +3)",Kd,[3],14 nM
